Test results reported in paper PMC3283998 (The Journal of Cell Biology, 2012).
Where no end group is shown, it is not given here.

T1: Bub1(1–150) (human, UniProt O43683 1-150)
T1 sequence (looked up): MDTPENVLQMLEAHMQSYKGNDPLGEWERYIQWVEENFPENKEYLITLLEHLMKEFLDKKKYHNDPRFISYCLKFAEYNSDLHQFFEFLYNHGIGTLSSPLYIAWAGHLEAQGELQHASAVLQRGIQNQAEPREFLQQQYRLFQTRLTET


Experiments:
Bub1(1–150) = target: T1, Bub1(1–150); test: fluorescence polarisation
BubR1(1–204) = BubR1(1–204) (human, UniProt O60566 1-204); test: fluorescence polarisation
BubR1(1–204), sequence (O60566 1-204): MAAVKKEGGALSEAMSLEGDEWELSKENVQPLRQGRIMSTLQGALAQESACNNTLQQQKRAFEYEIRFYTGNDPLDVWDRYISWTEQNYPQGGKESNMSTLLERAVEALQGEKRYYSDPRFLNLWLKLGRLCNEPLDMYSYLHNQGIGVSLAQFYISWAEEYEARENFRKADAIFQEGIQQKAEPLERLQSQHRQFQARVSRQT

Row | Kd (Bub1(1–150)) | Kd (BubR1(1–204)) | Binder
1 | ~35 µM |  | STKIDTTSFLANLKLHT (peptide, UniProt Q8NG31-2 174-190, looked up, also: fluorescein (5-FAM) label, position not given here) [Fluorescein (5-FAM)-labeled Knl1(174–190) peptide]
2 |  | 450 nM | ENKIDFNDFIKRLKTGK (peptide, UniProt Q8NG31-2 210-226, looked up, also: 5-FAM label, position not given here) [5-FAM–labeled synthetic peptide Knl1(210–226)]
